Measurements as given in patent US20240124885A1 (MENDEL BIOTECHNOLOGY, published 2024).

Legend:
AtBBX32::GFP [1] = target: T1, AtBBX32::GFP (Arabidopsis thaliana, UniProt Q9LJB7 1-225); test: Luminex co-IP from soybean cotyledon protoplast extract, both directions
T1 construct: Fusion protein transiently expressed in soybean cotyledon protoplasts; also called AtBBX32 fused to GFP; not shown: GFP fusion partner
T1 sequence: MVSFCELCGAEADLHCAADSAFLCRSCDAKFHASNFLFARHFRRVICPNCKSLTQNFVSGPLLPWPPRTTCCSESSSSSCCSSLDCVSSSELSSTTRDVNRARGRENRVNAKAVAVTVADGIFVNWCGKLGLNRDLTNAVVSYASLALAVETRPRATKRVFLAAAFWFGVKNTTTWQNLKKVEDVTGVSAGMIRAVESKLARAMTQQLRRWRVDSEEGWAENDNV
Procedure: (§1) Capture antibodies for GFP (MBL International, D153-3),Myc (Bethyl Laboratories cat #A190-104A)and FLAG (Bethyl Laboratories, A190-101A) were covalently coupled to carboxylated fluorescent microspheres (Luminex) according to the manufacturer's protocol Luminex two-step Carbodimide coupling protocol was modified as follows: 3.5×10⁶ beads were conjugated to […] of antibody and resuspended in coupling buffer containing 100 mM MES pH 6. Biotinylated antibodies for GFP (Abcam, ab6658), Myc (Bethyl Laboratories cat #A190-104B)and FLAG (Bethyl laboratories, A190-101B) were used for detection of interacting proteins in the miniaturized sandwich immunoassay. NeutrAvidin R-phycoerythrin was used as the reporter assay reagent (Invitrogen, A2660).
To assess the potential interaction between AtBBX32 and GmBBX39, two experiments were conducted consisting of a total of three repetitions (exp. 1, n=1; exp. 2, n=2). BBX32::GFP was co-expressed with FLAG::GmBBX39 in soybean cotyledon protoplasts. Expression analyses on one replicate of each treatment using either Luminex (BBX32::GFP) or Western blot (FLAG::BBX39) detection confirmed that each protein was expressed at detectable levels (data not shown). When co-expressed in protoplasts, BBX32::GFP and FLAG::BBX39 co-precipitated with either anti-GFP or anti-FLAG beads (FIG. 17).

AtBBX32::GFP [2] = target: T1, AtBBX32::GFP; test: Luminex co-IP, anti-GFP and anti-Myc capture
Procedure: Luminex co-IP assays were performed on extracts from soybean cotyledon protoplasts co-expressing AtBBX32 fused to GFP and GmBBX39 fused to the Myc epitope. A: IP with anti-GFP, detection with anti-Myc. B: IP with anti-Myc, detection with anti-GFP. MFI stands for Median Fluorescence Intensity. * denotes p<0.001.
as §1

[3] = target: Flag::GmBBX62 (Glycine max); test: Luminex co-IP from soybean protoplast extract, anti-GFP capture, anti-FLAG detection
[4] = target: Flag::GmBBX62 (Glycine max); test: reciprocal Luminex co-IP from soybean protoplast extract, anti-FLAG capture, anti-GFP detection

B1: FLAG::GmBBX39 (other)
chain: MKIQCDVCNKHEASVFCTADEAALCDGCDHRVHHANKLASKHQRFSLLRPSPKQHPLCDICQERRAFTFCQQDRAILCKECDVSIHSANEHTLKHDRFLLTGVKLSASAMLRSSETTSDSNSNPSLLNFSHQTTLLPPSSTTTTTTSNNNNNKVAVEGTGSTSASSISEYLIETLPGWQVEDFLDSYSVPFGFCKNDEVLPRFDGEMEGHLSSFSTENMGIWVPQAPPTLMCSSQMDRVIVHGETNIKGSSRSRLKDDNFTVPQISPPSNSKRARFLW
notes: Co-expressed with BBX32::GFP in soybean cotyledon protoplasts; also called FLAG::BBX39; not shown: FLAG tag
**Q.** Does B1 bind (AtBBX32::GFP [1])?
**A.** binds

B2: GmBBX39 fused to the Myc epitope (other, not shown: small tags and cut ends)
chain: B1 chain
**Q.** Does B2 bind (AtBBX32::GFP [2])?
**A.** binds

B3: AtBBX32::GFP (protein, not shown: large carriers)
chain: T1 sequence
**Q.** Which results are given for B3?
**A.** fold increase of median fluorescence intensity (MFI) over controls [3]: 6 fold; fold increase of fluorescence intensity over controls [4]: 5 fold
